Source: paper PMC11315836

Biological target: Recombinant hG-CSFR (granulocyte colony stimulating factor receptor) (human) (UniProt Q99062)
Experiment: SPR

Chain of UniProt Q99062 (Q99062 25-836): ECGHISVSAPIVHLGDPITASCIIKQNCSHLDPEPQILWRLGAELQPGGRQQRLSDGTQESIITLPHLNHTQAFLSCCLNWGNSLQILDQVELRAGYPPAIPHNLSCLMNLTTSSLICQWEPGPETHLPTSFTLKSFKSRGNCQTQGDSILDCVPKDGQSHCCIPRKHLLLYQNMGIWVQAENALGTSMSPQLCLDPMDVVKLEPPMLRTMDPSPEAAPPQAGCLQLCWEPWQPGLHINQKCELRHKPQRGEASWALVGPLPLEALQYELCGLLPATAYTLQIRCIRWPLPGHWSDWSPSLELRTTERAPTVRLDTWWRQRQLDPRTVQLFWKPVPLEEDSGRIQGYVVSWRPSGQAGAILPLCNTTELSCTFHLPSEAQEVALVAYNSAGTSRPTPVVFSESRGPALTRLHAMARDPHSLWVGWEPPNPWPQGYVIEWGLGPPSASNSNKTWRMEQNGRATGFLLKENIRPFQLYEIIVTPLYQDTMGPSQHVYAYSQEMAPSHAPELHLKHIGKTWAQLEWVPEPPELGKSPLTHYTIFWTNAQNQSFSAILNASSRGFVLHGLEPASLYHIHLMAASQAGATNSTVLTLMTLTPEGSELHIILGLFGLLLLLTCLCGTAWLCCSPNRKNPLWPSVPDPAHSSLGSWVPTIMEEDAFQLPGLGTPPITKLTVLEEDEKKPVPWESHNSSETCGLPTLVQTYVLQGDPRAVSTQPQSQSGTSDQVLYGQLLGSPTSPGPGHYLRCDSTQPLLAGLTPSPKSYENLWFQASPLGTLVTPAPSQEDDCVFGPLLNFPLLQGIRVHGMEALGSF

Kd: 0.097 nM
Substance: pegfilgrastim (Neulasta), reference product (from UniProt P09919-2 31-204) (ligand)
